# Measurements from patent US20210155918A1.
# Legend:
# [1] = biological target: rPro^Δ473-487, recombinant human prothrombin with region 473-487 deleted (human) (UniProt P00734)
# [2] = biological target: rPro^ΔC10, recombinant human prothrombin missing amino acids … (human) (UniProt P00734)
# [3] = biological target: rPro^ΔS5V, recombinant human prothrombin with region SVLQV deleted (human) (UniProt P00734)
# [4] = biological target: rPro^ΔN10, recombinant human prothrombin missing amino acids … (human) (UniProt P00734)
# [5] = biological target: rPro^ΔSLQ, recombinant human prothrombin with amino acids Ser^478/Leu^480/Gln^481 deleted (human) (UniProt P00734)
substance,measurement,setting,value
Human fXa (from UniProt P00742) (enzyme),Rate of Pro molecules cleavage by membrane-bound fXa alone (nM consumed · s^-1 · fXa^-1),[1],0.53
same,Rate of Pro molecules cleavage by membrane-bound fXa alone (nM consumed · s^-1 · fXa^-1),[2],0.35
same,Rate of Pro molecules cleavage by membrane-bound fXa alone (nM consumed · s^-1 · fXa^-1),[3],0.8
same,Rate of Pro molecules cleavage by membrane-bound fXa alone (nM consumed · s^-1 · fXa^-1),[4],0.7
prothrombinase (from UniProt P00742) (enzyme),Rate of Pro molecules cleavage by prothrombinase (nM consumed · s^-1 · fXa^-1),[1],1
same,Rate of Pro molecules cleavage by prothrombinase (nM consumed · s^-1 · fXa^-1),[3],1.8
same,Rate of Pro molecules cleavage by prothrombinase (nM consumed · s^-1 · fXa^-1),[4],1.5
same,Km of prothrombinase for rPro activation,[5],3.2 µM
same,"kcat/Km of prothrombinase for rPro activation (IIa generation, chromogenic substrate)",[5],670000 M⁻¹ s⁻¹
